The source of these data is paper PMC9270954.

The target in the experiment is GST–Rac1a (full-length Dictyostelium Rac1a as a GST fusion, GTP-bound form) (Dictyostelium) (UniProt P34144).

For “GST–GAP-RΔA (GAP domain of CARMIL-GAP with the conserved arginine changed to alanine, as a GST fusion) (domain or fragment)”, the fold activation of the GTP hydrolysis rate of GST–Rac1a (10 µM) by 2.5 µM GST–GAP-RΔA, 10 min at 20°C, free phosphate by CytoPhos; Rac1a alone normalized to 1.0 stood at 1.74 fold.
“GST–GAP (isolated GAP domain of CARMIL-GAP, residues 715–858, as a GST fusion) (domain or fragment)” came in with a fold activation of the GTP hydrolysis rate of GST–Rac1a (10 µM) by 2.5 µM GST–GAP, 10 min at 20°C, free phosphate by CytoPhos; Rac1a alone normalized to 1.0 of 5.8 fold.
